Square brackets hold non-standard residues; d marks the D form. Side chains are listed from the residue outwards. Ends that are not written are not given here. * marks the point of attachment. Acetyl(2-(4-imidazolyl)) = O=C(Cc1c[nH]cn1)*
Experiments:
human GLP-2 receptor = molecular target: T1, human GLP-2 receptor (Homo sapiens, UniProt O95838); experiment: In vitro activity: cAMP accumulation (LANCE cAMP kit) in CHO-K1 cells expressing human GLP-2 receptor; type: cell-based; conditions: for In vitro activity compared to human GLP-2 (%) (relative titer), GLP-2 derivative: GLP-2 derivative / Teduglutide
T1 construct: host or cells: CHO-K1
T1 sequence (O95838 1-553): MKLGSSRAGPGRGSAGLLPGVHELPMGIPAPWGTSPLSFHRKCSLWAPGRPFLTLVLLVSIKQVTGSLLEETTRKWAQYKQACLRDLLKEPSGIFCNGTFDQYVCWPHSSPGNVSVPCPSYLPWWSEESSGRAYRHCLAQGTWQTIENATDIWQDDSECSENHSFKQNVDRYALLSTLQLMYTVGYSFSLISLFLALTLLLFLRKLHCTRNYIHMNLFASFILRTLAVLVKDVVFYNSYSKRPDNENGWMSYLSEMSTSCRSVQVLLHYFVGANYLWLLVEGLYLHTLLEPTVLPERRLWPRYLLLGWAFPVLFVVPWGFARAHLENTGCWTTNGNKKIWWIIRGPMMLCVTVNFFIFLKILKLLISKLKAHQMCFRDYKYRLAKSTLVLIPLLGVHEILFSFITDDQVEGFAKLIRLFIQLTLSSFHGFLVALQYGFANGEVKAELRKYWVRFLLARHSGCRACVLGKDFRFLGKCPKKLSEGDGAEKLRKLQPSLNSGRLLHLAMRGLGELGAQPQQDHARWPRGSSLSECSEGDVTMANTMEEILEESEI
From the text: In order to measure the activities of the GLP-2 derivatives and the long-acting conjugates of GLP-2 derivatives, which had been obtained in the previous Examples, a cell line in which a GLP-2 receptor is transformed was used to measure the cell activity in vitro. The cell line is one that has been transformed to express a human GLP-2 receptor in Chinese hamster ovary (CHO)—K1, and thus is suitable for measuring the activity of GLP-2 (DiscoverX, U.S.A.).
In order to measure the activities of the GLP-2 derivatives and the long-acting conjugates thereof, human GLP-2 and Teduglutide (Gattex®, Shire) were subjected to a 3-fold serial dilution from 166.7 nM to 0.0028 nM; the GLP-2 derivatives were subjected to a 3-fold serial dilution from 500 nM to 0.0085 nM; and the long-acting conjugates of GLP-2 derivatives were subjected to a 3-fold serial dilution from 3000 nM to 0.0508 nM. The culture solution was removed from the cultured CHO-K1 cells, in which the human GLP-2 receptor is expressed, and then each of the serially diluted material was added to the cells in an amount of 5 μL, respectively. Thereafter, the buffer (5 μL) containing a cAMP antibody was added and then the cultivation was conducted at room temperature for 15 minutes. Then, a detection mix (10 μL) containing a cell lysis buffer was added thereto to dissolve the cells and reacted at room temperature for 60 minutes. The cell lysates, upon completion of the reaction, were applied to a LANCE cAMP kit (PerkinElmer, U.S.A.) to calculate the EC50 value via accumulated cAMP, and the values were compared with one another.

[1] = inactivation by DPP IV; Bolette H. et al. 2000; cited from earlier work
[2] = Pharmacokinetics of long-acting conjugates of GLP-2 derivatives in SD rat (Example 5); type: in vivo; conditions: normal SD rats, single subcutaneous injection 2.52 mg/kg, serum, ELISA
Experimental: The pharmacokinetics of the long-acting conjugates of GLP-2 derivatives were compared in normal rats.
Pharmacokinetic parameters thereof were calculated using the serum concentrations.

[3] = Comparison of pharmacokinetics between long-acting conjugate of GLP-2 derivative and Teduglutide in SD rat (Example 6); conditions: serum, sc, 2.5 mg/kg
Experimental: (§1) 8-week-old normal rates were divided into a group administering Teduglutide (2.5 mg/kg) and a group administering the long-acting conjugate of CA GLP-2 RK (3.4K PEG) derivative (0.705 mg/kg). The test materials were subcutaneously injected once into the normal rats in each group (3 rats/group). Thereafter, whole blood was obtained by collecting blood samples from the coccygeal vein at 0.25, 0.5, 1, 1.5, 2, 3, 4, 6, 8, and 24 hours for the group administering Teduglutide; and at 4, 8, 24, 48, 72, 96, 120, 144, 168, 192, 216, 240, 264, 288, 312, and 336 hours for the group administering the long-acting conjugate of CA GLP-2 RK derivative. The whole blood was placed in a 1.5 mL microtube, centrifuged at room temperature at 5,000 rpm for 10 minutes, and then sera were separated and stored at −20° C. Concentrations of the stored sera from each group were quantified using an ELISA analysis method. For Teduglutide, a GLP-2 ELISA Kit (Alpco, #48-GP2HU-E01.1) was used. For the long-acting conjugate of CA GLP-2 RK derivative, a biotin-labeled GLP-2 polyclonal antibody (Phoenix Pharmaceuticals, #B-028-14) was bound to a plate coated with Streptavidin (Roche, #11645692001), and then reacted with the serum for 1 hour. After washing, anti-human IgG4-HPR (Alpha Diagnosis, #10124) was added thereto and allowed to react at room temperature for 1 hour. Thereafter, the resultants were subjected to a color reaction using a TMB reagent, and the absorbance was measured at a wavelength of 450 nm. Pharmacokinetic parameters thereof were calculated using the serum concentrations.

C57BL/6 mice = experiment: Effect of increasing in vivo intestinal weight in normal mice (Example 7); conditions: 13 days, Teduglutide 7.5 & 15 nmol/kg/BID, conjugate 4.15, 7.5, 15, 30 nmol/kg/Q2D
Experimental: Five mice were placed in each group and autopsied after 13 days of the administrations. The small intestines were perfused, and the weight of the small intestines and the length of the villi within the small intestines were measured.

in vivo = conditions: SD, rat, sc, 2.5 mg/kg
Experimental: as §1

[4] = relative titer from cAMP EC50, CHO-K1 cells expressing human GLP-2 receptor

## CA GLP-2 KC: GLP-2 derivative SEQ ID NO: 2: X1 imidazoacetyldeshistidine, X2 glycine, X30 lysine, X34 cysteine (XGDGSFSDEMNTILDNLAARDFINWLIQTKITDC; X1 imidazoacetyldeshistidine; GLP-2 derivative; (1) Xaa is imidazoacetyldeshistidine)
Human GLP-2 receptor; [4]
  In vitro activity compared to human GLP-2 (%) (relative titer), GLP-2 derivative: 149.3%

## Glucagon-like peptide-2 [GLP-2]
[1]
  in vivo half-life: ≤ 7 min

## Long-acting conjugate of CA GLP-2 RC (10K PEG) derivative: CA-GLP-2 RC covalently linked to the immunoglobulin Fc by 10 kDa PEG at the 34th cysteine ([Acetyl(2-(4-imidazolyl))]GDGSFSDEMNTILDNLAARDFINWLIQTRITDC([PEG 10 kDa-immunoglobulin Fc]); also: Cys34 linked via 10 kDa PEG to immunoglobulin Fc)
[2]
  AUClast: 1384.9499 ± 186.8176 µg·h/mL
  Cmax: 13350.4 ± 3611.4 ng/mL
  MRTlast: 88.9 ± 9.4 h
  T1/2: 54.4 ± 6.9 h
  Tmax: 26.7 ± 20.1 h
Human GLP-2 receptor; CHO-K1 cells expressing human GLP-2 receptor, cAMP
  Activation of the GLP-2 receptor / relative potency (in words): higher activities compared to the long-acting conjugate of GLP-2 derivative (CA GLP-2 KC)
Human GLP-2 receptor; relative titer from cAMP EC50, CHO-K1 cells expressing human GLP-2 receptor, long-acting conjugates
  In vitro activity compared to human GLP-2 (%) (relative titer), conjugate of GLP-2 derivative: 46.0%

## CA GLP-2 KK: GLP-2 derivative SEQ ID NO: 3: X1 imidazoacetyldeshistidine, X2 glycine, X30 lysine, X34 lysine (XGDGSFSDEMNTILDNLAARDFINWLIQTKITDK; X1 imidazoacetyldeshistidine; GLP-2 derivative; (1) Xaa is imidazoacetyldeshistidine)
Human GLP-2 receptor; [4]
  In vitro activity compared to human GLP-2 (%) (relative titer), GLP-2 derivative: 205.6%

## CC[C@H](C)[C@H](NC(=O)[C@H](Cc1ccccc1)NC(=O)[C@H](CC(=O)O)NC(=O)[C@H](CCCNC(=N)N)NC(=O)[C@H](C)NC(=O)[C@H](C)NC(=O)[C@H](CC(C)C)NC(=O)[C@H](CC(N)=O)NC(=O)[C@H](CC(=O)O)NC(=O)[C@H](CC(C)C)NC(=O)[C@@H](NC(=O)[C@@H](NC(=O)[C@H](CC(N)=O)NC(=O)[C@H](CCSC)NC(=O)[C@H](CCC(=O)O)NC(=O)[C@H](CC(=O)O)NC(=O)[C@H](CO)NC(=O)[C@H](Cc1ccccc1)NC(=O)[C@H](CO)NC(=O)CNC(=O)[C@H](CC(=O)O)NC(=O)CNC(=O)[C@@H](N)Cc1c[nH]cn1)[C@@H](C)O)[C@@H](C)CC)C(=O)N[C@@H](CC(N)=O)C(=O)N[C@@H](Cc1c[nH]c2ccccc12)C(=O)N[C@@H](CC(C)C)C(=O)N[C@H](C(=O)N[C@@H](CCC(N)=O)C(=O)N[C@H](C(=O)N[C@@H](CCCCN)C(=O)N[C@H](C(=O)N[C@H](C(=O)N[C@@H](CC(=O)O)C(=O)O)[C@@H](C)O)[C@@H](C)CC)[C@@H](C)O)[C@@H](C)CC [Teduglutide]
[3]
  half-life: 0.6 ± 0.1 h
C57BL/6 mice
  length of the villi within the small intestines: increase in the length of the villi
  weight of the small intestines: increased in a dose-dependent manner
Human GLP-2 receptor; [4]
  In vitro activity compared to human GLP-2 (%) (relative titer), GLP-2 derivative: 147.5%
In vivo
  AUC(0-t): 2.6 ± 0.581 µg·h/mL
  Cmax: 1680 ± 744 ng/mL
  MRT last: 1.4 ± 0.1 h
  Tmax: 0.7 ± 0.3 h

## CA GLP-2 RK: GLP-2 derivative SEQ ID NO: 4: X1 imidazoacetyldeshistidine, X2 glycine, X30 arginine, X34 lysine ([Acetyl(2-(4-imidazolyl))]GDGSFSDEMNTILDNLAARDFINWLIQTRITDK)
Human GLP-2 receptor; [4]
  In vitro activity compared to human GLP-2 (%) (relative titer), GLP-2 derivative: 333.2%

— US12703730B2, “Long-acting conjugates of GLP-2 derivatives” (HANMI PHARM. CO., LTD., priority 2017, dated 2026)
